The text below walks through data of patent publication US20160116468A1.

Assay [1] deals with endogenous EGFR expressed in COS7 cells. Briefly: diffusion coefficient change of endogenous EGFR (labelled Fab probe), COS7 cells.
The target is the same in assay [2]. The assay is described as follows: diffusion coefficient of endogenous EGFR after against before cetuximab, COS7 cells.
The target is the same in assay [3]. Briefly: diffusion coefficient change of endogenous EGFR (Alexa Fluor 647 Fab of mAb 199.12 as probe) in a COS7 cell, 20 µg/ml cetuximab.

Consider cetuximab (antibody), for which the change in diffusion coefficient (%) in assay [1] and in assay [3] was 40% each time. In addition, in assay [2], the Dc2 value as percent of Dc1 value came to 60%.
